Holding throughout (assay): MST
Conditions in all cases: 50 nM RED-NHS labeled PdtaR, RNA up to 10 uM, autophosphorylation buffer (composition and pH not in material) with 0.025% Tween-20, 50 uM ATP …

Data set [1] has as its system PdtaR~P (phosphorylated by PdtaS) (Mycobacterium tuberculosis Erdman (ATCC 35801)).
The subject of data set [2] is PdtaR (unphosphorylated) (Mycobacterium tuberculosis Erdman (ATCC 35801)).
Data set [3] deals with T1, PdtaR (unphosphorylated) (Mycobacterium tuberculosis Erdman (ATCC 35801)) (UniProt P9WGM3).
T1 sequence: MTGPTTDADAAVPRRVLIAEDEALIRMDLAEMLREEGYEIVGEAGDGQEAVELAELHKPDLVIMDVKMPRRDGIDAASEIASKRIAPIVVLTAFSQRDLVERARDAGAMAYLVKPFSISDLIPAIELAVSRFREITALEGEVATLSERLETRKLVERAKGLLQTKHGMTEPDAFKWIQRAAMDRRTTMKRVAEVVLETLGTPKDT

The source of these data is article PMC8131098.

As usually defined, the Kd is the concentration at which binding is half-saturated. Read a high Kd as lower affinity.

Consider PPE1-5' RNA, for which the Kd in data set [1] was 410 nM; in data set [2], 1280 nM.
“GGCAAAAAAUUCGUGCACCAACCCCCCUCCGAGCGCUGCUAAGCUCAAUGUGCAGUGCAAAGGUGCAGAUAAUGAUGGCGCACCGGAACGGCGAGCGUAAGGAAA [rv3864 RNA]”: in data set [3], the Kd was 2590 nM.
For rv3864 RNA, the Kd in data set [1] was 2120 nM; in data set [2], 2590 nM.
